Test results as given in publication PMC5303273, “Rab1 interacts with GOLPH3 and controls Golgi structure and contractile ring constriction during cytokinesis in Drosophila melanogaster” (Open Biology, 2017).

Target: T1, 6XHis-GOLPH3 (Drosophila melanogaster, UniProt Q9VQ93 1-294)
T1 construct: Drosophila GOLPH3 made with the pET Directional TOPO Expression kit; also called 6XHis-tagged GOLPH3; recombinant GOLPH3; source: recombinant (pET Directional TOPO Expression kit), purified (cOmplete His-Tag Purification Resin)
T1 sequence (Q9VQ93 whole entry): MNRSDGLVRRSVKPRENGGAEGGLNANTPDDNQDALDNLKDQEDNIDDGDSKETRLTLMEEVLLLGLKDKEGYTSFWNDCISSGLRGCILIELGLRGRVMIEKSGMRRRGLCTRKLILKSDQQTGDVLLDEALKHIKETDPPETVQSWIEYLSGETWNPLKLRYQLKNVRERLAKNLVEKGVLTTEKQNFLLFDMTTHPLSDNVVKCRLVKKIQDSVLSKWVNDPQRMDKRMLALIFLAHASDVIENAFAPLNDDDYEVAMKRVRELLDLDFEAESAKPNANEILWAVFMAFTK
Assay: pull-down; GST-Rab protein on glutathione beads loaded with GMP-PNP (GTP), incubated with recombinant 6XHis-GOLPH3 for 5 h at 4°C; blot with anti-6XHis
Details: both partners purified

binding result: binds
B1: GST-Rab1 (natural protein)
chain: not shown
notes: full-length cDNA of Drosophila Rab1 cloned into pGEX-6p-2; In the direct pull-down the protein on the beads was loaded with GDP-beta-S or GMP-PNP; also called GST-full-length Drosophila Rab1; source: BL21-CodonPlus (DE3), purified (Glutathione-Sepharose 4B beads)
